According to US9125896B2:

How the values were obtained:
[1] = target: human epidermal growth factor receptor (EGFR) (human) (UniProt P00533)
[2] = target: human epidermal growth factor receptor (EGFR) (human) (UniProt P00533); remark: listed apart in the source
[3] = target: human epidermal growth factor receptor (EGFR) (human) (UniProt P00533); remark: listed apart in the source

Binder	EC50 (nM), inhibition of basal proliferation of NCI-H292 cells (WST-8, 5 days) [1] [nM]	Maximal inhibition (%) of basal proliferation of NCI-H292 cells [1] [%]	EC50 (nM), H292 tumor cell growth inhibition (Example 11, WST-8) [2] [nM]	EC50 (nM), inhibition of basal proliferation of HCC827 cells (WST-8, 5 days) [3] [nM]	Maximal inhibition (%) of basal proliferation of HCC827 cells [3] [%]
muEGFR-6 (antibody, V domains shown) VH: QVQLQQSGAELARPGASVKLSCKASGYTFTSYWMQWVKQRPGQGLECIGALYPGDGDARYTQKFKGKATLTADRSSSTAYMQLSSLASEDSAVYYCARYDAPGYAMDYWGQGTSVTVAS VL: DIQMTQSPSSLSASLGGKVTITCKASQDINNYIAWYQHKPGKGPRLLIHYTSTLHPGIPSRFSGSGSGRDYSFSISNLEPEDIATYYCLQYDNLLYTFGGGTKLEIKR	5.6	65	2.59	0.3	72
muEGFR-7 (antibody, V domains shown) VH: QVQLQQSGAELARPGASVKLSCKASGYTFTSYWMQWVKQRPGQGLECIGTIYPGDGDTTYTQKFKGKATLTADKSSSTAYMQLSSLASEDSAVYYCARYDAPGYAMDYWGQGTSVTVSS VL: DIQMTQSPSSLSASLGGKVTITCKASQDINNYLAWYQHKPGKGPRLLIHYTSTLHPGIPSRFSGSGSGRDYSFSISNLEPEDIATYYCLQYDNLLYTFGGGTKLEIKR	0.4	77	0.21	0.03	72
